Two molecules from US20250122254A1, “Recombinant Fusion Proteins Comprising Interleukin- 18-Binding Protein and Antigen Binding Fragment to Serum Albumin, and Compositions and Uses Thereof” (published 2025) can be followed below.

Where two headings read alike, the source gives them in different places.

In assay [1] the target is T1, recombinant human IL-18 (human, UniProt Q14116). The assay is described as follows: cell-based or functional assay.
Assay [2] deals with T1, recombinant human IL-18.
Target sequence in this assay (Q14116 37-193 limits assumed): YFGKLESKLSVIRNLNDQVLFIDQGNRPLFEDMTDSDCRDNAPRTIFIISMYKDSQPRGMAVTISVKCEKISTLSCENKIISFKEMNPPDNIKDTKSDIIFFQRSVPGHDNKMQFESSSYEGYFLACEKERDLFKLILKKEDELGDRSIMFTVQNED

B1: recombinant human IL-18-binding protein with His-tag (hIL18BP-his8) (other)
chain: TPVSQTTTAATASVRSTKDPCPSQPPVFPAAKQCPALEVTWPEVEVPLNGTLSLSCVACSRFPNFSILYWLGNGSFIEHLPGRLWEGSTSRERGSTGTQLCKALVLEQLTPALHSTNFSCVLVDPEQVVQRHVVLAQLWAGLRATLPPTQEALPSSHSSPQQQGHHHHHHHH
For the molecule B1, the “IC50 of inhibition of IL-18-induced IFN-γ production in KG-1 cells” value in assay [1] came to 0.024 nM.

B2: APB-R3 protein (protein)
heavy: QVQLVQSGGGPVKPGGSLRLSCAASGFMFRAYSMNWVRQAPGKGLEWVSSISSSGRYIHYADSVKGRFTISRDNAKNSLYLQMNSLRAEDTAVYYCARETVMAGKALDYWGQGTLVTVSSASTKGPSVFPLAPSSKSTSEGTAALGCLVKDYFPEPVTVSWNSGALTSGVHTFPAVLQSSGLYSLSSVVTVPSSSLGTQTYICNVNHKPSNTKVDKKVEPKSSGSAPAPGSTPVSQTTTAATASVRSTKDPCPSQPPVFPAAKQCPALEVTWPEVEVPLNGTLSLSCVACSRFPNFSILYWLGNGSFIEHLPGRLWEGSTSRERGSTGTQLCKALVLEQLTPALHSTNFSCVLVDPEQVVQRHVVLAQLWAGLRATLPPTQEALPSSHSSPQQQG
light: DIVLTQSPGTLSLSPGETATLSCRASQSVGSNLAWYQQKPGQAPRLLIYGASTGATGVPARFSGSRSGTDFTLTITSLQPEDFATYYCQQYYSFLAKTFGQGTQLEIKRTVAAPSVFIFPPSDEQLKSGTASVVCLLNNFYPREAKVQWKVDNALQSGNSQESVTEQDSKDSTYSLSNTLTLSKADYEKHKVYACEVTHQGLSSPVTKSFNRGES
Consider B2, for which the IC50 of inhibition of IL-18-induced IFN-γ production in KG-1 cells in assay [2] was determined as 0.0419 nM.
